Results on 41 sequences are retold here after the nanobody polyreactivity screen of Harvey et al. (2022).

This series can be described thus: yeast display, Sf9 membrane polyspecificity reagent, FACS + sequencing; frameworks hold sequencing errors. Summed up: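 Genes from sorted yeast were amplified by colony PCR, read by MiSeq 2 × 250 sequencing and filtered on CDR length. These cells carried a synthetic nanobody library in Saccharomyces cerevisiae BJ5465 and were sorted by FACS into low and high (top ~1%) gates on anti-HA and streptavidin fluorescence. Polyreactivity is labelled according to the gate of origin.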
With “QVQLVESGGGLVQAGGSLRLSCASSGSIFYGYAMGWYRQAPGKERELVAAINNSGVSTYYADSVQGRFTISRDNAKNTVYLQMNSLKPEDTAVYYCNKAGAYPYHYDYWGQGTQGTVSS”, the “polyreactivity (PSR sort gate)” value is reported as “low polyreactivity”. In the case of “QVQLVESGGGLVQAGGSLRLSCASSGSIFYNNAMGWYRQAPGKERELVAAIRSTGTRTYYSDSVKGRFTISRDTAKNTVYLQMNSLKPEDTAVYYCAVGDYGLWSYDYWGQGTQVTVSA” it was “low polyreactivity”; in that of “QVQLVESGGGLVQAGGSLRLSCASSGSILVHYAMGRYRQAPGKERELFAAISRGGSTNYADSVKGRFTISRDNAKNTVYLQMNSLKPEDTAVYFCAARHGQSWQWLEYDYWGHGTQVTVSS”, “low polyreactivity”; in that of “QVQLVESGGGLVQAGGSLRLSCASSGSNTFINAMGWYRQAPGKERELVAAISGSGGSTYYADSVKGRFTISRDNAKNTVYLQMNFLKPEDTAVYYAARTGQYKTYGEYDYWGQGTQVTVSS”, “low polyreactivity”. On to “QVQLVESGGGLVQAGGSLRLSCASSGSTFDINAMGWYTQAPGKARELVAAITCGGGTNYADSVKGRFTISRDNAKNTVYLEMNSLKPEDTAVYYCAAVYYSTDYYFWYDYWGQGTQVTVSS”, for which the “polyreactivity (PSR sort gate)” value is recorded as “low polyreactivity”.

In the case of “QVQLVESGGGLVQAGGSLRLSCASSGSTFDYYVMGWYRQEPGIVRELVASISSGGSTYYADSVKGRFTISRDNAKNTVYLQMNSLKPEDTAVYYCAARYYGRVGGYSIGYNYWGQGTQVTVSS”, the “polyreactivity (PSR sort gate)” value is “high polyreactivity”. In the case of “QVQLVESGGGLVQAGGSLRLSCASSGSTFFTNAMVWYRQAPGKERELVATITWSGGTTYADSVKGRFTISRDNAKNTVYLQMNSLKPEDTAVYYCADESSSYWGDQGGALWLYDYWGQGTQVTVSS”, the “polyreactivity (PSR sort gate)” value was “low polyreactivity”. In the case of “QVQLVESGGGLVQAGGSLRLSCASSGSTFNPYAMGWYRQAPGKERELVAAISRGGRTKYADSVKGRFSISRDNAKNTVYCHMNSLKPEDTAVYYCAARQRSRSRYDYWGQVTQVTVSS”, the “polyreactivity (PSR sort gate)” value is recorded as “high polyreactivity”. In the case of “QVQLVESGGGLVQAGGSLRLSCASSGSTFSYYTMGWNRQAPGKERELVAAITRSGGRTYYADSVKGRFTISRDNAKNTVYLQMNSLKPEDTAVYNCAAYRANSGEFDYWGQGTQVTVTS” it was “high polyreactivity”; in that of “QVQLVESGGGLVQAGGSLRLSCASSGSTFVSYAMGWYRQAPGKERELVAGISWSGTRTYYADSVKGRFTISRDNAKNTVYLQMNSLKPEDTAVYYCAALDSSYNWYGYWGQGTQVTVSS”, “high polyreactivity”; in that of “QVQLVESGGGLVQAGGSLRLSCASSGSTFVSYVMGWYRQAPGKERELVARITISSGSTRYADSVKGRFTISRDNAKNTVYLQMNSLKPEDTAVSYCAVDAVDAFVFLSWDYDYWGQGTQVTVSS”, “low polyreactivity”. In the case of “QVQLVESGGGLVQAGGSLRLSCASSGSTIGRNAMGWYRQAPGKERELVASISSGGSTYYADSVKGRFTISRDNAKNTVYLQMESLKPEDTAVYYCARRAYQNWYNYWGQGTQVTVAS” it was “high polyreactivity”.

For the sequence “QVQLVESGGGLVQAGGSLRLSCASSGSTIVHYAMGWYRQAPGKERELVAGITDTDNHELRRLCEGRFTISRDNAKNTVYLQMNSLKPEDTAVYFCNADDTYYQLGGITGYDYWGQCTQVTVSS”, the “polyreactivity (PSR sort gate)” value is reported as “low polyreactivity”. “QVQLVESGGGLVQAGGSLRLSCASSGSTLFPYAMGWYRQAPGKERELVAAISSRGGRTYYADSVKGRFTISRDNAKNTVYLQMNSLKPEDTAVYYCAAGDDYWGQGTQVTVSS”: the “polyreactivity (PSR sort gate)” value was “high polyreactivity”. With “QVQLVESGGGLVQAGGSLRLSCASSGYIFGRYAMGWYRQAPGKERELVAAISSTGDSTYYADSVKGRITISRDNAKNTVYLQMNSLKPEDTAVYYCNAVVPRYSYGRYYYWGQCTQVTVSS”, the “polyreactivity (PSR sort gate)” value is “high polyreactivity”. Regarding “QVQLVESGGGLVQAGGSLRLSCASSGYIFRSYAMGWYRQAPGKERELVATISWIGGGTSYADSVKGRFTISRDNAKNTVYLQMNSLKPEDTAVYYCAAGPWAYGRRHAYYSRSFDYWGQGTQVTVSS”, the “polyreactivity (PSR sort gate)” value is “high polyreactivity”. For “QVQLVESGGGLVQAGGSLRLSCASSGYTFDYYTMGWYRQAPGKERELVARITASGGSTYYADSVKGRFTISRDNAKNTVYLQMNSLKPEDTSVYYCAKAWYRYSRFDYWGQGTQVTVSS”, the “polyreactivity (PSR sort gate)” value is listed as “high polyreactivity”.

For the sequence “QVQLVESGGGLVQAGGSLRLSCASSGYTLRPNGKGWYRQAPGKERELVAAISSGGSTYYADSVKGRFTISRDNAKNTVYLQMNSLKPEDTAVYYCAAEYWYDYWGQGTQVTVSS”, the “polyreactivity (PSR sort gate)” value is on record as “low polyreactivity”. Consider “QVQLVESGGGLVQAGGSLRLSCASSVIILVQYVMGWYIQAPGKERELVASISRTGGSTNYADSVKGRFTISRDNAKNTVYLQMNSLKPEDTAVYYCSAKKRKIAGVGGDYWGQGTQVTVSS”, for which the “polyreactivity (PSR sort gate)” value was “high polyreactivity”. Then “QVQLVESGGGLVQAGGSLRLSCASSVRIFGSNVMGWYRQAPGKERELVASISSGGNTYYADSVKGRFTISRDNAKNTVYLQMNSLKPEDTAVYYCAARRGSAGQWYDYWGQGTQVTVSS”, with “high polyreactivity”. Then “QVQLVESGGGLVQAGGSLRLSCASSVYIFVSNTKGWYRPAPGKERELVAAISWSGGSTNYADSVKGRFTISRDKAKNTVYLLMNSLKPEDTAVYYCNADDASHYYFRDDYWGQGTQVTVSS”, with “low polyreactivity”; and “QVQLVESGGGLVQAGGSLRLSCASYGRTFYDYAMGWYRPAPGKERELVAGIRWSGGSTYYADSVKGRFTISRDNAKNTVYLQLNRLKPEDTAVYYCAADWFAGVAADVEYDYWGQGTQVTVSS”, with “low polyreactivity”; and “QVQLVESGGGLVQAGGSLRLSCATGSIFGYNAMGWYRQAPGKERELVAAITSGGSTYYADSVKGRFTISRDNAKNTVYLQMNSLKPEDTAVYYCNRDDYNTAYRDASGYWGQGTQVTVSS”, with “low polyreactivity”. As to “QVQLVESGGGLVQAGGSLRLSCATSGFTFVYNAMGWYRQAPGKESELVAAINWSGGRTYYADSVKGRFTISRDNAKNTVYLQMNSLKPEDTAVYYCAAGYSPYKGSAGYYWGQGTQVTVSS”, the “polyreactivity (PSR sort gate)” value is reported as “low polyreactivity”.

In the case of “QVQLVESGGGLVQAGGSLRLSCATSGSTFNDYDMGWYRQAPGKERELVAAISSSVSTYYADSVKGRFTISRDNAKNTVYLQMNSLKQEDTAVYYCAADYTGVCRYDYWGQGTLVTVSS”, the “polyreactivity (PSR sort gate)” value is listed as “low polyreactivity”.

Take “QVQLVESGGGLVQAGGSLRLSCATSRSTFVLYAMGWYRQAPGKERELDAAISGGATTTYADSVKGRFTISRDNAKNTVYLQMNSLKPEVTAVYYCAADFSTYVVSGAALDYWGQGTQVTLSS”: the “polyreactivity (PSR sort gate)” value is recorded as “low polyreactivity”. For the sequence “QVQLVESGGGLVQAGGSLRLSCDASGAIFFSYAMRSYREAPGKERELVATITAGGGSTNYADSVKGRFTISRDNAKNTVYLQMNSLKAEDTAVYYSAAKRLSWHRYGYWGQGSQVTVSS”, the “polyreactivity (PSR sort gate)” value is “low polyreactivity”.

“QVQLVESGGGLVQAGGSLRLSCDASGFIFDEYAMGWYRPAPGEERELVAAINWRGGSTYYADSVKGRFTISRDNAKNTVYLQMNSLKPEDTAVYYCAARNVYVWYDYWGQGTQVTVSS”: the “polyreactivity (PSR sort gate)” value is listed as “low polyreactivity”. With “QVQLVESGGGLVQAGGSLRLSCDASGFIFGRNAMGWYRQAPGKERELVAGISSSGFRTFYADSVKGRFTISRDNAKNTDYLQMNSLKQEDTAVYYCAAEIRYYKYGSYYYWGKGTQVTVSS”, the “polyreactivity (PSR sort gate)” value was “high polyreactivity”. In the case of “QVQLVESGGGLVQAGGSLRLSCDASGFIFNAYAMGWYRQAPGKERELVAAISTRGSNTYYADSVKGRFTISRDNAKNTVYLQMNSLKPDDTAVYYCAARGYVTFSKSNYWGQGTQVTVSS” it was “high polyreactivity”.

In the case of “QVQLVESGGGLVQAGGSLRLSCDASGFIIARNAMGWYRQAPGKERELVAAISASGGRTYYADSVKGRFTISRDNAKNTVYLQMNSLKPEDTAVYYCAARRDGRSGSYNYWGQGTQVTVSS”, the “polyreactivity (PSR sort gate)” value was “high polyreactivity”. In the case of “QVQLVESGGGLVQAGGSLRLSCDASGFISRYAMGWYRQAPGKERELVAAINRSGGRTYYADSVKGRFTISRDNAKNTVYLQMNSLTPEDTAVYYCAALRGRYYGVLGEYWGQCTQVTVSS” it was “high polyreactivity”; in that of “QVQLVESGGGLVQAGGSLRLSCDASGFTFATYAMGRYRQAPGKERELVAAISSGGYTYYADSVKGRFTISRDNAKNTVYLQMNSLKPEDTGVYYCNVSIGLFYLWYFNRYYYWGQGTQVTVSS”, “high polyreactivity”.

“QVQLVESGGGLVQAGGSLRLSCDASGFTFKTNAMGWYRQAPGKERELVAAINRSGGSTYYADSVKGRFTISRDNAKNTVYLQMNSLKPEDTAVYYCATRSYLPGVRRGYDYWGQGTQVTVSS”: the “polyreactivity (PSR sort gate)” value was “high polyreactivity”. Then “QVQLVESGGGLVQAGGSLRLSCDASGFTLAWNARGWSRQAPRKERELVATISRSGSSTSYADSVKGRFTISRDNAKNTVYLQMNSLKPEDTAVYYCAKSGRYGFWGQGTQVTVSS”, with “high polyreactivity”. For the sequence “QVQLVESGGGLVQAGGSLRLSCDASGGTFVHNAMGWYRQAPGKERELVAAISWSGGSTYYADSVKGRFTISRDNATNTVYLQMNSLKPEDTAVNYCAADLPDYKDIFDSWGQGTQVTLSS”, the “polyreactivity (PSR sort gate)” value is reported as “low polyreactivity”.

As for “QVQLVESGGGLVQAGGSLRLSCDASGIIFFIYTMGWYRQAPGKERELVAVITRGGRTKYADSVKGRLTISRDNAKNTVFLQMNRLNPEDNAVYYCAAKGSRSYYWGQGTHVTVSS”, the “polyreactivity (PSR sort gate)” value is “low polyreactivity”. In the case of “QVQLVESGGGLVQAGGSLRLSCDASGIIFPYYAMGWYRQAPGKERELVAGISSSGGITYADSVKGRFTISRDNAKNTVYLQMNSLNPEDTAVYYCNAEYQWLEYDYWGQGTQVTVSS” it was “low polyreactivity”; in that of “QVQLVESGGGLVQAGGSLRLSCDASGIIFYYNAMGWYRQAPGKERELVDRINSGGSTNYADSVKGRFTISRDNAKNTVDFQMTSMKPEDTAVYYCAARVRRWSYYGALFEYWGQGTQVTVSS”, “low polyreactivity”; in that of “QVQLVESGGGLVQAGGSLRLSCDASGITIRLYGMGWYRQAPGTERELVATITRDGRTYYADSVKGRFTISRDNAKNTVYLQMNSLKPEDTGVYYCARPARYSYGDGYWGQGTEVTVSS”, “low polyreactivity”. In the case of “QVQLVESGGGLVQAGGSLRLSCDASGLTFDQYAMGWYRQGPGKERELVAAISGSDSTYYADSVKGRFTISRDNAKNTVYLQMNSLKPEDTAVYYCAASGDYVNIITGERFDARLYDYWGQGTQVTVSS” it was “low polyreactivity”.
